Assay results taken from the supplement of paper PMC12455559.
± gives the standard deviation of the averaged measurements.

What was measured:
[1] = melting temperature (DSF); higher = more thermostable
Outline: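 Values are melting temperatures from differential scanning fluorimetry. Candidate enzymes were expressed in E. coli C41(DE3), purified on nickel beads and freed by SUMO protease cleavage. In sealed PCR plates on a Bio-Rad CFX96, 45 μL enzyme (0 to 0.3 mg/mL) was combined with 5 μL 5X Sypro Orange. Fluorescence was recorded from 25 °C for 250 cycles, rising 0.3 °C per cycle at a ramp of 0.3 °C/s.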

[2] = purified protein yield per well (BCA); higher = higher soluble expression
Outline: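 The measured quantity is purified protein yield per well, determined with the Pierce Rapid Gold BCA kit. Anything below 25 ug (0.1 mg/mL) lies under the detection threshold. Enzymes were expressed in E. coli C41(DE3) in 2 mL autoinduction cultures with 100 µg/mL kanamycin at 37 °C for 2 h, then 18 °C for 40 h, and purified on an OT-2 robot using Ni-charged magnetic beads and SUMO protease release.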

[3] = PET hydrolysis, aromatic products released after 48 h (umol product/mg enzyme); higher = more PET depolymerization activity
Outline: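 Candidate enzymes, made tagless by SUMO cleavage and purified on nickel beads, were added at 5 μg (50 μL) to 3.5 mg of either amorphous PET film or crystalline PET powder in 450 μL buffer. The sealed plates stood unshaken for 48 h at 40 or 60 °C. Activity on PET is the aromatic product found in the supernatant per mg enzyme, read at 260 and 280 nm against buffer blanks.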

[4] = substrate: cryPow, 40 °C, pH 5.5
[5] = substrate: cryPow, 40 °C, pH 6.5
[6] = substrate: cryPow, 40 °C, pH 7.5
[7] = substrate: cryPow, 40 °C, pH 8.5
[8] = substrate: cryPow, 60 °C, pH 5.5
[9] = substrate: cryPow, 60 °C, pH 6.5
[10] = substrate: cryPow, 60 °C, pH 7.5
[11] = substrate: cryPow, 60 °C, pH 8.5
[12] = substrate: aFilm, 40 °C, pH 4.5
[13] = substrate: aFilm, 40 °C, pH 5.5
[14] = substrate: aFilm, 40 °C, pH 6.5
[15] = substrate: aFilm, 40 °C, pH 7.5
[16] = substrate: aFilm, 60 °C, pH 4.5
[17] = substrate: aFilm, 60 °C, pH 5.5
[18] = substrate: aFilm, 60 °C, pH 6.5
[19] = substrate: aFilm, 60 °C, pH 7.5
[20] = substrate: cryPow, 40 °C, pH 4.5
[21] = substrate: cryPow, 60 °C, pH 4.5

| Sequence | melting temperature [1] [C] | purified protein yield per well [2] [µg] | PET hydrolysis [3, 4] | PET hydrolysis [3, 5] | PET hydrolysis [3, 6] | PET hydrolysis [3, 7] | PET hydrolysis [3, 8] | PET hydrolysis [3, 9] | PET hydrolysis [3, 10] | PET hydrolysis [3, 11] | PET hydrolysis [3, 12] | PET hydrolysis [3, 13] | PET hydrolysis [3, 14] | PET hydrolysis [3, 15] | PET hydrolysis [3, 16] | PET hydrolysis [3, 17] | PET hydrolysis [3, 18] | PET hydrolysis [3, 19] | PET hydrolysis [3, 20] | PET hydrolysis [3, 21] |
| --- | --- | --- | --- | --- | --- | --- | --- | --- | --- | --- | --- | --- | --- | --- | --- | --- | --- | --- | --- | --- |
| ANPYERGPAPTKASIEATTGYFATAKVTVAKSSVSGFGGGTIYYPTSTTSGTFGAIALVPGFTNVQSAVAWLGPRVASQGFVVFIIDTNSVYDSPDSRGTQLLAALDYLTNTSTVKSRVDATRLGVMGYSMGGGGALSATKTRTSIKASVPMAPYHSTKTWTTVKTPTLIVTGQSDTTAPPASHGLAFYNSLSTSIDKAYMELKGAGHSAPTSANTTIAKYSISWFKRFIDDDTRYDQFLCPNPTDTTISSYKSTCNYS [DP082] | 61.9 | 88 | 5 | 76 | 100 | 93 | < 3 | 13 | 22 | 32 |  |  |  |  |  |  |  |  |  |  |
| QYQKGPDPTVSALERTGSFATRTTTVSRTSASGFGGGTIYYPTASGSYGAIAISPGFTAYQSSISWMGTRLASHGFVVITIDTITTSDQPDSRGRQLKAALDKVVSLSRSSSSPIYNKVDTTRLAVAGHSMGGGGTLAAARDYPSLKAAVPLAPWHTTKSWSRVTVPTLIIGGSTDTIASVGLHSIPFYTSLPSSTNKAYMELSGEGHFFPQTSSNYPLVGRYMISWFKRFVDGDSRYSPFLCGAQHQADLGLFSDISDYRENCPY [ESM169] | 61.3 | 219 | 15 ± 2.8 | 32.5 ± 0.71 | 57 ± 11 |  | 9 | 24.5 ± 2.1 | 29 ± 1.4 |  | < 3 | 6 ± 1.4 | 10.5 ± 0.71 | 18.5 ± 0.71 | < 3 | < 3 | 6.5 ± 0.71 | 6 ± 1.4 | < 3 | < 3 |
| ADNPHQRGPNPTQASVAASRGTFATSETSVGGGNGFGGAKIYYPTDTSQGKFAALAVSPGYTATWAAEGAWMGHWLASFGFVIIGIDTISRTDWDVARGDQLLAALDYLTQRSSVRDRVDASRVGVMGHSMGGGGAISAGLKRPSLKVVIGNAPYSASQNLTNMRVPVALLAGQRDTTVTPATTNSYYNQVPATTEKMYLELTNAPHSFPTSNNSVMTRKVIPWMKIFLDQDTRYQQFLCPLLDNTGIRTYRSSCPLIGDPMPPADTYRLAGAASGKCADVEGRSQANGAKLLLWTCNGQTNQRWTQTATGELRVYDNPKCVEAGTSAQGTRVTINACNGGNSQKWTVNANGTVTNAVSGRCLDAAGTADNSPIVVNTCTGAGSQNWSKRS [TEP049] | 50.8 | 68.7 | < 3 | < 3 | < 3 |  | < 3 | < 3 | < 3 |  |  |  |  |  |  |  |  |  | < 3 | < 3 |
| AANPYERGPDPTDAILEAARGPFETSRTEVPALSVTGFGGGTIYYPATTSAGTFGGVAVAPGYTADRTSLAWLAERLASHGFVVFNIDTLTRLDQPDSRGRQLLAALDYLTQRSSVRGRLDAGRLGVMGHSMGGGGTLEAARDRPSLQAAVPLTPWDLTKIWSGVRVPTMIVGAEADTIAPVASHAEPFYQSLPSSPGKAYLELNNATHFAPNVPDTTIGKYVVAWMKRFVDDDTRYTRFLCPGPSGGLTVEEYRSTCPFS [TEP194] | 50.8 | 325 | 8.5 ± 0.71 | 7 | 1.5 ± 2.1 |  | 7 | 3.5 ± 0.71 | < 3 |  | < 3 | < 3 | < 3 | < 3 | < 3 | < 3 | 2 ± 2.8 | < 3 | 5 | 3.5 ± 0.71 |
| MAQTSSCSLMGDVDGSGAIDIVDALLVAQAYVGLNPANYNDACADVDCSDSANIVDALLVAQLYVGLISSFPCEVTPEPTGVSTPTPGGAISIACGSSSAVGSFQADEYYSGGSTYNNSNTVDVSLITDNPPPAALFNNERYGEMSYTIPGFTAGGTYAVTLYFAETYLTSSGSRQFNVSINGTAVLSSFDIYAAAGGQNRAVARAFTTTADSGGQIVIQFTSVTENPKINGISIQAGTAPTPGPTATPGPTSENPYERGPDPSLESVAASRGTFATAELTLSPGNGFGGGFIYYPTDTSLGTWAAVAICPGYTAKFANEETWMGHWLASFGFVVIGIETNTTTDSVDARGTQLLAALDYLTQQSAVRDRVDPDRLMVMGHSAGGGGAFTAAVQRSSLKTVVGLAPASASNMGSLRMPVMIISGQYDDVITPSYINGIWTSLSPTIQRAWIELANNDHLSFTRSNSTEMRVLIPWMKIFLDNDTRYTQFLCPLADSSGISKYENSCPLVP [TEP011] | 64.6 | 30.6 | < 3 | < 3 | < 3 |  |  |  |  |  |  |  |  |  |  |  |  |  | < 3 |  |
| MLGALAIVGGTRPATGADNPYQRGPDPTPASVSAGRGTFATAQVSVGAGNGFGGGVIYYPTDTSQGTFGAIAVVPGYTATWAAEGAWMGHWLASYGFVVIGIDTNTRNDWDTARGTQLLAALDYLTQRSSVRDRVDATRTAVMGHSMGGGGAAYASLQRPSLKTSVGLAPFSPSQNLTTTRVPTMLLSGQNDGTVTPSSVQNLYNGIPAGVEKAYLELTGAGHGFPTSNNPTMMRTVIPWFKIFVDSDTRYTQFLCPLADSNGIRTYQSTCPLVPSTPPTTTTTPTSTTTTSTTSTTPTTTTTTPQPGGACSATYRTVNSWSGGYQGEVTVTAGTSAVTGWTVRWSLGSGQTISQVWNGTLTVDGPTASVRNVSYNGSLGANASTTFGFIGGGTPPTSTLSCTSP [ESM006] | 63.1 | 577 | 6.5 ± 0.71 | 13 ± 1.4 | 17.5 ± 6.4 |  | < 3 | < 3 | < 3 |  | < 3 | < 3 | < 3 | < 3 | < 3 | < 3 | < 3 | < 3 | < 3 | < 3 |
| ASPYERGPNPTTAILEASSGPYSVSSVSVSSLVTGFGGGRIYYPTTTADGTFGGIAISPGFTARWSSLEWLGPRIASHGFVVIGIETNSIYDQPTSRGQQLLAALDYLVNSSSARTRVDRNRLAVAGHSMGGGGTLYAANARPSLQAAVPIAPWNTDKTWGGVQVPTMIIGGESDSVAPVATHAIPFYTSIPASSEKAYLELNNASHFFPQTVNTTMAKSMVSWLKRYVDDDTRYDPWLCPAPSGLSISDYRDTCPA [DP084] | 48.7 | 91 | < 3 | 3 | 9 | 11 | < 3 | < 3 | < 3 | < 3 |  |  |  |  |  |  |  |  |  |  |
| AAGYERGPNPTSSALEATRGPFSVASTNVSSLSASGFGGGTIYYPTDTSQGTFGGVVIAPGYTASKSSMAWLAERLASHGFVVFNIDTITRSDQPDSRGRQILAAADHLAEESSSTVRRRLDASRIGVMGHSMGGGGTLAAADSRPSLKAAVPLTPWHLDKSWGNVRVPTMIIGAENDTIAAVGSHSEPFYNSLSAAPEKAYLELNGASHFAPNSDNDTIAKYGISWMKRFVDEDTRYDQFLCPAPGRSTTIEEYRSSCPHS [DP086] | 39.1 | 90 | < 3 | < 3 | < 3 | < 3 | < 3 | < 3 | < 3 | < 3 |  |  |  |  |  |  |  |  |  |  |
| ETEYRKGPDPTEATVTAALGPFATASVSVPSSVAGFGGGVIHYPTDTSQGTFGAVAVAPGFLGSSANYAWMGPRLASQGFVVFLINTDSRLDQPPSRGDQLLAALDYLVTSSSVRARIDASRLAVAGHSMGGGGTLEAATDRPGLQAAIPLQPWHTVKSWPNVQVPTLIIGAENDTTAPVASHAEPFYVSIPAAAEKAYLELNNAEHRVGTAGDTTQAKFMIVWLKRYVDNDTRYEQFICPPPPAPSSEIQEYRNTCPG [TEP171] | 44.2 | 59.3 | < 3 | < 3 | < 3 |  | < 3 | < 3 | < 3 |  |  |  |  |  |  |  |  |  | < 3 | < 3 |
| AIEHRRGPAPSEQSVLAANGPFSHSTFAVSDAASAKFGKGTIYYPNDTSQGTFGGVAISPGYTSTEPHIAWLGTRLAAHGFVTITITTNSLYDNPTERGQQLLAALDYLANNAPLAIRQRLDTSRMGVVGHSMGGGGSLYAVWNRPALKAAVPLAPYHTIKNWSGIKTPTMIIGGSADGVAPVEEHSERFYSSMTYARERAYAELEGANHSGSFLFEDHPIIGKFTVAWLKRFIDGDTRYDQFLCPPPTGAYLTEYRASCPHA [DP006] | 46.9 | 28 | < 3 | < 3 | < 3 | 5 |  |  |  |  |  |  |  |  |  |  |  |  |  |  |
| ADNPYQRGPDPTRTSVAAVNGPFANTSVSVPTGYGFNGGRIYYPTDTSQGTFGAIAISPGYTALFSAELAWMGPWLASHGFVVIGIETNSRNDFDTARGTQLLAALDYLTQQSPVRDRVDPNRLAVSGHSMGGGGALSAAIRRSSLKAVVGIAPYSPSSNLANDRVPTMIFSGQADTVVTPSYATGLYNSLPATTESVYLEVAGADHGFMVGRSNPVMIRTMLPFVKMFIDNDTRYSQFLCPLLDSSGVVTYRSTCPLLPPAPTTPPPTGTPTPTPSSNPTTPPTTPPSTPTA [ESM061] | 62.8 | 408 | 23 ± 1.4 | 5 | < 3 |  | < 3 | < 3 | < 3 |  | < 3 | < 3 | < 3 | < 3 | < 3 | < 3 | < 3 | < 3 | 11 ± 2.8 | < 3 |
| ADNPYQRGPDPTRSSVAAVNGPFANTSVAVPTGYGFNGGRIYYPTDTSQGTFGAVAISPGYTALFSVELAWMGPWLASHGFVVIGIETNSRNDFDTARGTQLLAALDYLVQQSPVRDRIDPNRLAVSGHSMGGGGALSAALRRPALKAAVGIAPYSPSSNLANDRVPTMVFAGQADTVVTPSYATGLYNSLPTTTESAYLEVAGADHGFMVGRSNPVLIRTMLPFLKMFVDNDARYSQFLCPLADNSGVVSYRSTCPLLPPTSTTPPPIPSDTPPPIPTTPPQTTPPPSNPPGAASLIVGAQSNRCLDVPNASRANGTRVQLWDCNRGTNQSWTYTTNKQLRVYGDMCLDAAGSGNGAAVQIYGCHSQTNQQWNVNANGTISSVQSGRCLDVWSTANGAQVQLYDCHGQTNQRFTLTPLT [ESM101] | 58.6 | 149 | 19 | 8 | 4 |  | < 3 | < 3 | < 3 |  |  |  |  |  |  |  |  |  | 7 | < 3 |
